This test deals with immobilized gingipain (GP protein) of the anti-gingipain ELISA of Example 18. Nature of the test: ELISA on immobilized gingipain. A general note: ELISA stands for enzyme-linked immunosorbent assay.

B1: KB001 (antibody, V domains shown)
VH: EVQLKQSGPGLVAPSQSLSITCTVSGFSLSIYSVHWVRQPPGKGLEWLGMIWGGGSSDYNSALKSRLSISKDNSKSQVFLKMNSLQTDDTAMYYCARNGNFYAMDYWGQGTSVTVSS
VL: QIVLTQSPAIMSASLGERVTMTCTASSSVSSSFLHWYQQKPGSSPQLWIYSTSNLASGVPARFSGSGSGTSYSLTISSMEAEDAATYYCHQYHHSPYIYTFGGGTKLEIKR
As for B1, the detectable level of concentration worked out at 3 ng/mL.
